Data taken from the supplement of paper PMC12764529.
± gives the half width of the 95% confidence interval.

test: folding stability dG unfold from trypsin proteolysis; higher = more stable
In short: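 Sequencing followed digestion of designed mini-proteins with trypsin and chymotrypsin, each at 11 concentrations in threefold dilutions together with a no-protease condition. The mini-proteins were under 80 residues, had no cysteine, sat in a PA-tagged cDNA display construct, and were kept only if AlphaFold2 dimer inter-PAE was above 15. From the counts, Bayesian fitting gave K50, and unfolding free energy was derived against a sequence-predicted unfolded-state K50 and a shared folded-state K50, per protease or combined.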

“SAGGSAGGSAGGGRTYTFTLPDGTVLTVTADDMTEEEIRAKLEAEGGEIVEITVEPGLSSAGGSAGGSAGGS [r10_572_JUSTAS]” and “SAGGSAGGSAGPYKVKVTLKNGEVLEFTIPEEFKDLKEVKIDLPEELKENIVKVEIEPLESAGGSAGGSAGG [r17_528_TrMRF]” are within error of each other in “folding stability dG unfold” value: 2.43 ± 0.034 kcal/mol for the first, 2.56 ± 0.1 kcal/mol for the second.

Going from “SAGGSAGGMIRFDTPEEVEAALKALRAKLPPGATLVIEIEVDGKLVRVEFKDGKITKVEVRELPSAGGSAGG [r6_288_TrROS_Hall]” to “SAGGPFRIEDISIQRDPDNGKLTIIIPFPAPPGQEIKIKVRDPGNGKEKKFDMKVEPLPNGYLTMTISAGGS [r8_195_TrROS]”, the “folding stability dG unfold” value falls from 3.02 ± 0.16 kcal/mol to 1.82 ± 0.14 kcal/mol.

First: SAGGSAGGSKPKRRRVQIELPLPPGKPITPDHIREFMRPFGAPKVEITNIHPTNGRWIITFELSAGGSAGGS [r20_79_TrROS]
Second: SAGGSAGKTKIEIRPLPDGSYLVLVTSPDGSKSEFIADGPDIPLPELLKKLNLPPDIEVVNAELPESAGGSA [r15_167_TrMRF]
The “folding stability dG unfold” value of the first is lower: 1.98 ± 0.031 kcal/mol for the first, 2.98 ± 0.12 kcal/mol for the second.

Compared with “SAGGMSVTFEKEDKTYVITFEPSPEGGYLVTLEVLDPKTGEAKPVATAEFTEGSLEDAVVALLAAEESAGGS [r16_378_TrMRF]”, “SGSFASVTEDSLPDGGGYIVATEVSTGASRVYPPGTVVAEPAPADSTLVETLYDPATGEPLSTTTRTVAASA [r9_209_JUSTAS]” is lower in “folding stability dG unfold” value: 4.08 ± 0.3 kcal/mol for the first, -0.712 ± 0.2 kcal/mol for the second.

First: SAGGSAGGSAGGDWITFTNPGGYKVTVEVDENGWMRVEVYPNGKPQEVPMPLEELKKNAPSAGGSAGGSAGG [r7_178_TrROS]
Second: SAGGSAGGSMKIKPGQVVKIKVEKDGKIYEFEAKIDPKTGKLVEIKSAEELKGLKIKEIEIVPSAGGSAGGS [r12_6_TrROS_Hall]
The “folding stability dG unfold” value of the first is lower: -0.451 ± 0.18 kcal/mol for the first, 1.14 ± 0.027 kcal/mol for the second.

First: SAGGPGEEYKHPNGMAMRRDPENGKVEMRKVPPIPIEIKIEIDPALGWIRLSITIPNGKKIEFTFPFSAGGS [r16_453_TrROS]
Second: SAKITKIEINEDGTLTITIEVELPEGMEADELVIFVEVDGKIYEATIKKDGTVEIKLKNIKDLKIYIFKKSA [r9_722_TrROS_Hall]
The “folding stability dG unfold” value of the first is lower: 2.36 ± 0.052 kcal/mol for the first, 3.87 ± 0.28 kcal/mol for the second.

Compared with “SAMLSPAEIKRPRLLEIIETIKKLGNFSVDIKRLPGDGDVKVKIELDPNKIEEAAKITGIPLSEIKKLVSAG [r14_688_JUSTAS]”, “KPKLTIEYDEETGKFTITLPDGRKIEIELKKDGTVVRIRVKENGKEREIELTLDELKALLDNKDVTIEIIPS [r1_18_TrROS_Hall]” is higher in “folding stability dG unfold” value: 0.923 ± 0.15 kcal/mol for the first, 3.95 ± 0.13 kcal/mol for the second.

First: SAGGKKEKKLTLLFSDPNGKLSLVIEVYKKKDGSYWAVFYNPETGKKEEYKFKSLEELEEAVKELLKKSAGG [r13_857_TrMRF]
Second: SMETPPEELVERVREYLASQGYTVTSVEVTPLPDGSVRVEVTATPPDASTTLTITVTVPPDGTVVVEVTAQS [r1_460_JUSTAS]
The “folding stability dG unfold” value of the first is lower: 2.8 ± 0.048 kcal/mol for the first, 3.76 ± 0.2 kcal/mol for the second.

Compared with “SAEKLKKILENIEKVEFDEETGEVYITVKSVEEAEKALKELFPDVEIEKDEDGNYRFRIRVEKLPEELLSAG [r14_115_TrROS_Hall]”, “SAMRFVVRVEGDLEEVERALREEFDFEMEAEREEDGRLVVVVEAEPEELERLVEALERLPDFPVEIEPESAG [r14_521_TrMRF]” is lower in “folding stability dG unfold” value: 3.66 ± 0.12 kcal/mol for the first, 1.01 ± 0.027 kcal/mol for the second.

Going from “SAGGSAGGMTPVVVTVTITLPNGEVVEYRVPVAPDELEAAAEAVKEPLEAQGVDVEVEIEAVAASAGGSAGG [r6_721_JUSTAS]” to “SAGGSPGIKIEIWFMIMFPVKPDPDNGKPRWYMIMVSPKMWYDPEPGGMQIEIDINIMPLGDPEAFSAGGSA [r2_489_TrROS]”, the “folding stability dG unfold” value rises from 1.99 ± 0.065 kcal/mol to 3.2 ± 0.16 kcal/mol.

Going from “SAGGGMEPKPVEVTLTIPKGTVTPEDKVPVSTIAKLLGIPEDTEVTVEKITPVPNSDTELVTLTIVTSAGGS [r16_165_JUSTAS]” to “SAGGSAGGSAGGSPNIYYTSGPFALVVTLPNGTKIVIPGSNIENLKNYNLISVEVVSTDSAGGSAGGSAGGS [r4_348_TrMRF]”, the “folding stability dG unfold” value rises from 0.412 ± 0.023 kcal/mol to 0.528 ± 0.065 kcal/mol.

First: SAGGSAGGSANGWVFMIHFNIEQEPVPAEELGMPPGDPGYEDMYVIKIKSISFFWVPAGDFSAGGSAGGSAG [r3_488_TrROS]
Second: SAGGSAGGSAGEEVILRIKVKLKNGEERTIEINMTLDELLAELPENVTEIKIEAIPKEDLSAGGSAGGSAGG [r11_596_TrROS_Hall]
The “folding stability dG unfold” value of the first is higher: 3.27 ± 0.09 kcal/mol for the first, 1.29 ± 0.052 kcal/mol for the second.

Compared with “SAGGPVNKKELVTVPVYYDPETGKFVVKATYPTRPITVPTDETDPVEALARFGTLLEKVTGKPIDTFVGSAG [r5_251_TrMRF]”, “SGGMEKTENGNVRPVPLPTTVVKETPPEVSPEEAKERVEKELKEKGYKNVKVTTSYDPSTNLVTITVTVESA [r9_1124_JUSTAS]” is higher in “folding stability dG unfold” value: -0.0487 ± 0.083 kcal/mol for the first, 0.447 ± 0.071 kcal/mol for the second.

Compared with “SAGGSAGGSAGGMKTIEITNADGSKATAELLPDGWVKIYFEETGEEKTLPAKDLTITPPSAGGSAGGSAGGS [r10_289_TrROS_Hall]”, “SAGGKKITVTVTRERTEDGTLRVTVTLRDEETGRTLTLTLTVPRENEEEVEEAAKRLAEELAADPELESAGG [r13_968_TrROS_Hall]” is higher in “folding stability dG unfold” value: 0.423 ± 0.038 kcal/mol for the first, 2.82 ± 0.064 kcal/mol for the second.

Compared with “SVEEFRELLPDAVIEAEPLSPDRLLIRLYVPEDPEKLNPLAERVRELAEEIERETGLPVLIEIIPVPPESSA [r9_1099_TrMRF]”, “SAGGTIMIPFDTPEQAKDIREAAKDGEPIEIRPPDGKPIKFKIKDVEVDPNSGWLVIKIPNGRTIPISAGGS [r16_254_TrROS]” is lower in “folding stability dG unfold” value: 1.53 ± 0.033 kcal/mol for the first, -0.179 ± 0.19 kcal/mol for the second.

First: SAGGSAGGSATPPDSSVSVKVEITVGGEKKLVTATLTTLPNGTTSLTLNFDIPPDKYELSLVSAGGSAGGSA [r18_428_JUSTAS]
Second: SMKKGEKIKIEKKKDGTLKITLPDGKEITVPLKDIKIEIKDGKIKITVFKDGKKIAEFELKIKKKKKKKKSA [r9_901_TrROS_Hall]
The “folding stability dG unfold” value of the first is higher: 2.52 ± 0.11 kcal/mol for the first, 1.71 ± 0.07 kcal/mol for the second.
